The target in assay [1] is T1, human Claudin 9 (human, UniProt O95484 1-217).
T1 construct: whole, on cells; also called CLDN9; CLND9
T1 sequence (looked up): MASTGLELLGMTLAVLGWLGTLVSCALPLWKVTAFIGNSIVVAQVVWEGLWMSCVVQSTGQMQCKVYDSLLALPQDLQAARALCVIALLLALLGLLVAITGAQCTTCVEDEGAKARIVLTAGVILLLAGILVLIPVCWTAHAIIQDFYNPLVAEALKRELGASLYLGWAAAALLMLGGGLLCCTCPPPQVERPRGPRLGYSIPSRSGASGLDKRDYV
Briefly: flow cytometry, HEK293/H_CLDN9 cells. The procedure:
In this example, cell-based binding of z5 toward human CLDN9 engineering expressing cells were assessed using flow cytometry.
Briefly, 2 cell lines were incubated with antibodies (from 100 nM, 6 folds dilution, 8 points) at 4° C. for 60 minutes. Cells were pelleted and washed twice with 2% FBS/PBS buffer, and stained with fluorescent conjugated secondary antibody at 4° C. for 30 minutes. After that the cells were washed twice and resuspended in 80 μL of 2% FBS/PBS buffer. Fluorescent signal of binding was detected using Agilent. The EC50 was calculated using the GraphPad software.

Assay [2] has as its target T2, human Claudin 3 (human, UniProt O15551 1-220).
T2 construct: whole, on cells; also called CLDN3
T2 sequence (looked up): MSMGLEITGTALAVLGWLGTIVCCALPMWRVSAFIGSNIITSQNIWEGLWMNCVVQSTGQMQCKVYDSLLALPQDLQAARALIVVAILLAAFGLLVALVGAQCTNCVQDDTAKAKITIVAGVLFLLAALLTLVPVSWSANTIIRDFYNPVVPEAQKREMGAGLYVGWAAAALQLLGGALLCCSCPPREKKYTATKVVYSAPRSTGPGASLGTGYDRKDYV
The experiment in a line: flow cytometry, CHOK1/H_CLDN3 cells. The procedure: (§1) In this example, cell-based binding of hu Abs on human CLDN3 expressing cells were assessed using flow cytometry.
(§2) Briefly, the CHOK1/H_CLDN3 cells were incubated with hu-Abs (from 100 nM, 6 folds dilution, 8 points). After incubation at 4° C. for 60 minutes. Cells were pelleted and washed twice with 2% FBS/PBS buffer, and stained with fluorescent conjugated secondary antibody at 4° C. for 30 minutes. After that the cells were washed twice and resuspended in 80 μL of 2% FBS/PBS buffer. Fluorescent signal of binding was detected using Agilent. The EC50 was calculated using the GraphPad software.
(In general: A flow cytometer gives signals particle by particle.)

Assay [3] concerns the target T3, human Claudin 6 (human, UniProt P56747 1-220).
T3 construct: whole, on cells; also called CLDN6
T3 sequence (looked up): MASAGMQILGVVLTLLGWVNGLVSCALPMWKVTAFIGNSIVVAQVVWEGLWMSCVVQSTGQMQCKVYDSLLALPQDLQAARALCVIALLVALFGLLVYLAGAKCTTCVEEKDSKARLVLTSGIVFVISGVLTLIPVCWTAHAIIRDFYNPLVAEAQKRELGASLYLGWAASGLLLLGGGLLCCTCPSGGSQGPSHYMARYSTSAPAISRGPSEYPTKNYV
The experiment in a line: flow cytometry, HEK293/H_CLDN6 cells, Ab titrated from 100 nM. As for the experimental part:
In this example, cell-based binding of humanized antibodies (hu Abs) on human CLDN6 expressing cells were assessed using flow cytometry.
Briefly, the HEK293/H_CLDN6 cells were incubated with hu-Abs (from 100 nM, 6 folds dilution, 8 points). After incubation at 4° C. for 60 minutes. Cells were pelleted and washed twice with 2% FBS/PBS buffer, and stained with fluorescent conjugated secondary antibody at 4° C. for 30 minutes. After that the cells were washed twice and resuspended in 80 μL of 2% FBS/PBS buffer. Fluorescent signal of binding was detected using Agilent. The EC50 was calculated using the GraphPad software.

Assay [4] has as its target T2, human Claudin 3. Briefly: flow cytometry, CHOK1/H_CLDN3 cells, Ab titrated from 100 nM. As for the experimental part:
as §1, §2

Assay [5] addresses T1, human Claudin 9. The experiment in a line: flow cytometry, HEK293/H_CLDN9 cells, Ab titrated from 100 nM. As for the experimental part: In this example, cell-based binding of hu Abs on human CLDN9 expressing cells were assessed using flow cytometry.
Briefly, the HEK293/H_CLDN9 cells were incubated with hu-Abs (from 100 nM, 6 folds dilution, 8 points). After incubation at 4° C. for 60 minutes. Cells were pelleted and washed twice with 2% FBS/PBS buffer, and stained with fluorescent conjugated secondary antibody at 4° C. for 30 minutes. After that the cells were washed twice and resuspended in 80 μL of 2% FBS/PBS buffer. Fluorescent signal of binding was detected using Agilent. The EC50 was calculated using the GraphPad software (LaJolla, CA).

Assay [6] addresses T3, human Claudin 6. The experiment in a line: flow cytometry, HEK293/H_CLDN6 cells, Ab titrated from 100 nM. The procedure:
(§3) In this example, cell based binding of chimeric Abs on human CLDN6 & CLND9 over-expressing cell line were assessed using flow cytometry.
(§4) Briefly, the cells were incubated with chimeric Abs (from 100 nM, 6-fold dilution, 8 points) for 60 minutes at 4° C. Cells were pelleted and washed twice with 2% FBS/PBS buffer, and stained with fluorescent conjugated secondary antibody at 4° C. for 30 minutes. After that the cells were washed twice and resuspended in 80 μL of 2% FBS/PBS buffer. Fluorescent signal of binding was detected using Agilent. The EC50 was calculated using the GraphPad software (LaJolla, CA).
This is another data set of the same source.

Assay [7] deals with T1, human Claudin 9. Briefly: flow cytometry, HEK293/H_CLDN9 cells, Ab titrated from 100 nM. The procedure:
as §3, §4
This is another data set of the same source.

Changes are numbered by the printed parent chain. Where two headings read alike, the source gives them in different places.

B1: 97-C10E1-2-P1.z13 (antibody, V domains shown)
VH: QVQLQQSGAEVKKPGASMKISCKASGYAFTGYTMNWVRQAPGQNLEWIGLSNPYNAGTIYNQKFKGRATLTVDKSTSTAYMELLSLRSEDTAVYYCARNYYYGSSYAYYYAMDYWGQGTTVTVSS
VL: DAQMTQSPSSLSASVGDRVTITCRSSTGAVTTSNYANWVQQKPGKAPKLLIGGTNNRAPGVPSRFSGSGSGTDATLTISSLQPEDFATYYCALWYSNHWVFGGGTKVEIK
Regarding B1, the binding result in the assay with human Claudin 9 [1] and in the assay with human Claudin 3 [2] was “no binding (tested: 100 nM (highest concentration tested))” throughout. For the same molecule, the results for the “Top MFI” value with human Claudin 6 [3], in the assay with human Claudin 3 [4] and with human Claudin 9 [5] were 15500, 131 and 315, respectively.

B2: 97-C10E1-2-P1.z14 (antibody, V domains shown)
VH: B1 VH
VL: B1 VL with P47F, L49G, S63A, G69L, T75A, Y90F
As to B2, the binding result in the assay with human Claudin 9 [1] and with human Claudin 3 [2] was “no binding (tested: 100 nM (highest concentration tested))” in each case. For the same molecule, the “Top MFI” value with human Claudin 6 [3] was determined as 115000; with human Claudin 3 [4] it was 158; with human Claudin 9 [5], 661.

B3: 97-C10E1-2-P1.z6 (antibody, V domains shown)
VH: B1 VH with M18V, I20V, A68V, A79V
VL: EAVMTQSPATLSVSPGERATLSCRSSTGAVTTSNYANWVQQKPGQAPRLLIGGTNNRAPGIPARFSGSGSGDEATLTISSLQSEDFAVYFCALWYSNHWVFGGGTKVEIK
B3: the binding result in the assay with human Claudin 9 [1] and with human Claudin 3 [2] was “no binding (tested: 100 nM (highest concentration tested))” throughout. For the same molecule, the “Top MFI” value with human Claudin 6 [3] is 32200; with human Claudin 3 [4], 139; with human Claudin 9 [5], 417.

B4: 97-C10E1-2-P1.z11 (antibody, V domains shown)
VH: B1 VH
VL: B3 VL
B4: the binding result with human Claudin 9 [1] and with human Claudin 3 [2] was “no binding (tested: 100 nM (highest concentration tested))” in each case. The “Top MFI” value with human Claudin 6 [3] was found to be 31000; in the assay with human Claudin 3 [4], 118; in the assay with human Claudin 9 [5] it was 287.

B5: 97-C10E1-2-P1.z1 (antibody, V domains shown)
VH: B1 VH with Q5V, M18V, I20V, N44G, A68V, L70M, A79V, L84S
VL: B3 VL
In the case of B5, the binding result with human Claudin 9 [1] and with human Claudin 3 [2] was “no binding (tested: 100 nM (highest concentration tested))” in each case. The “Top MFI” value with human Claudin 6 [3] came out at 45100; with human Claudin 3 [4] it was 136; with human Claudin 9 [5] it was 479.

B6: 97-C10E1-2-P1.z12 (antibody, V domains shown)
VH: B1 VH
VL: B3 VL with M4V, Q41E, P47F, L49G, G69L
As to B6, the binding result with human Claudin 9 [1] and with human Claudin 3 [2] was “no binding (tested: 100 nM (highest concentration tested))” each time. In addition, the results for the “Top MFI” value with human Claudin 6 [3], with human Claudin 3 [4] and with human Claudin 9 [5] were 107000, 130 and 149, respectively.

B7: 97-C10E1-2-P1.z15 (antibody, V domains shown)
VH: B1 VH
VL: DIVVTQSPSSLSTSVGDRVTITCRSSTGAVTTSNYANWVQEKPGKAFKGLIGGTNNRAPGVPARFSGSLSGDDAALTISSAQPEDFATYFCALWYSNHWVFGGGTKVEIK
As for B7, the binding result with human Claudin 9 [1] and with human Claudin 3 [2] was “no binding (tested: 100 nM (highest concentration tested))” each time. Also, the entries for the “Top MFI” value with human Claudin 6 [3], in the assay with human Claudin 3 [4] and in the assay with human Claudin 9 [5] were 128000, 138 and 186, respectively.

B8: 59-H12C5 (antibody, V domains shown)
VH: EVQLVESGGGLVQPGGSLKLSCAASGFTFSSHGMSWVRQTADRGLELVASINSNGGRTYYPDSMKGRFTISRDNAKNTLYLQLSSLQPEDTALYYCACYYDNTYYAMDYWGQGTSLTVSS
VL: QIVLTQSPAIMSASLGERVTMTCTASSSVSSSSLHWYQQKPGSSPKLWIYTTSTLASGVPARFSGSGSGTSYSLTISSMEAEDAATYYCHQYHRSPPTFGGGTKLEIK
notes: Tested as chimeric antibody
On to B8, for which the “Top MFI” value with human Claudin 6 [6] amounted to 379000; with human Claudin 9 [7], 341000.

B9: 85-H10A5 (antibody, V domains shown)
VH: EVQLQQSGPELVKPGASVKISCKTSGYTFTEYPMHWVKQSHEKSLEWIGGINPKNGDANSNQKFKGKATLTVDKSSSTAYMELRSLTSEDSAVYYCARGWLLLFDVWGAGTMVTVSS
VL: DIQMTQSSSSFSVSLGDRVTISCKASEDIYNRLAWYQQKPGNAPRLLISGATSLETGIPSRFSGSGSGKDYTLSITTLQTEDVAAYYCQQYWSSPLTFGAGTKLELR
notes: Tested as chimeric antibody
Consider B9, for which the “Top MFI” value in the assay with human Claudin 6 [6] was found to be 285000; in the assay with human Claudin 9 [7], 113000.

B10: 59-A2E6 (antibody, V domains shown)
VH: EVQLQQSGPELVKPGASVKISCKTSGYTFTEYTMHWVKQSHGKSLEWIGGINPKNGGTSYNQKFKGKATLTVDKSSSTVYMEFRSLTTEDSAVYYCARGMLVAFYFDCWGQGTTLTVSS
VL: DIQMTQSPASQSASLGESVTITCLASQTIGTWLAWYQQKPGKSPQLLIYAATSLADGVPSRFSGSGSGTKFSFKISSLQAEDFVSYYCQQLYSTPYTFGGGTKLEIK
notes: Tested as chimeric antibody
With B10, the “Top MFI” value with human Claudin 6 [6] is 264000; with human Claudin 9 [7], 102000.

B11: 81-H10F8 (antibody, V domains shown)
VH: B10 VH with K54N, S77R, V79A, F83L, T88S, L101V
VL: B10 VL with S53G, S65G, A80V
notes: Tested as chimeric antibody
In the case of B11, the “Top MFI” value with human Claudin 6 [6] is 257000; with human Claudin 9 [7] it was 105000.

B12: 36-E6A6 (antibody, V domains shown)
VH: QVQLQQSGGEVVRPGTSVKVSCKASGYAFTNNLIEWVKQRPGQGLEWIGVIHPGSGGSNYNEKFKNKATLTTDKSSSTAYIQLSSLTSDDSAVYFCARRGRDYAMDYWGQGTSVTVSS
VL: EIVLTQSPAIMSASLGEKVTMSCRASSSVNSIYWYQQKSDASPKLWIYYTSNLAPGVPARFSGSGSGNSYSLTIRSMEGEDAATYYCQQFTSSPLTFGAGTKLELK
notes: Tested as chimeric antibody
Regarding B12, the “Top MFI” value in the assay with human Claudin 6 [6] amounted to 62100.

Values taken from patent publication US20240317851A1 (LANOVA MEDICINES, published 2024).
